Measurements reported in patent publication US20240398949A1 (OSLO UNIVERSITETSSYKEHUS HF, published 2024).

How the values were obtained:
[1] = molecular target: T1, Peptide 5 of Table 3 (peptide of the p95HER2 extracellular domain); test: peptide array on cellulose membrane, overlapping 15mers, signal intensity (area under curve), triplicate spots
T1 construct: Synthetic peptide immobilized on a cellulose membrane
T1 peptide: INCTHSCVDLDDKG

[2] = molecular target: T2, Peptide 7 of Table 3 (15mer of the p95HER2 extracellular domain); test: as above
T2 construct: Synthetic peptide immobilized on a cellulose membrane
T2 peptide: VDLDDKGCPAEQRAS

[3] = molecular target: T3, Peptide 4 of Table 3 (15mer of the p95HER2 extracellular domain); test: as above
T3 construct: Synthetic peptide immobilized on a cellulose membrane
T3 peptide: CQPCPINCTHSCVDL

[4] = molecular target: T4, Peptide 6 of Table 3 (15mer of the p95HER2 extracellular domain); test: as above
T4 construct: Synthetic peptide immobilized on a cellulose membrane
T4 peptide: THSCVDLDDKGCPAE

[5] = molecular target: T5, Peptide 1 of Table 3 (15mer of the p95HER2 extracellular domain); test: as above
T5 construct: Synthetic peptide immobilized on a cellulose membrane
T5 peptide: MPIWKFPDEEGACQP

[6] = molecular target: T6, Peptide 2 of Table 3 (15mer of the p95HER2 extracellular domain); test: as above
T6 construct: Synthetic peptide immobilized on a cellulose membrane; also called KFPDEEGACQPCPIN
T6 peptide: KFPDEEGACQPCPIN

[7] = molecular target: T7, Peptide 8 of Table 3 (15mer of the p95HER2 extracellular domain); test: as above
T7 construct: Synthetic peptide immobilized on a cellulose membrane
T7 peptide: DDKGCPAEQRASPLT

[8] = molecular target: T8, Peptide 3 of Table 3 (15mer of the p95HER2 extracellular domain); test: as above
T8 construct: Synthetic peptide immobilized on a cellulose membrane
T8 peptide: EEGACQPCPINCTHS

peptide 3 (FIGURE 3 d/e) = molecular target: T9, peptide 3 (FIGURE 3 d/e); test: peptide array on cellulose membrane, truncation series, signal intensity (area under curve), duplicate spots
T9 peptide: KPDLSYMPIWKFPDEEGA

peptide 2 (FIGURE 3 d/e) = molecular target: T10, peptide 2 (FIGURE 3 d/e); test: as above
T10 peptide: VKPDLSYMPIWKFPDEEGA

[9] = molecular target: T11, peptide 16 (FIGURE 3 d/e); test: as above
T11 construct: also called DEEGA
T11 peptide: DEEGA

peptide 6 (FIGURE 3 d/e) = molecular target: T12, peptide 6 (FIGURE 3 d/e); test: as above
T12 peptide: LSYMPIWKFPDEEGA

[10] = molecular target: T13, Peptide 13 of Table 4 (N-terminal truncation, tryptophan-614 lost); test: as above
T13 peptide: KFPDEEGA

[11] = molecular target: T14, peptide 14 (FIGURE 3 d/e); test: as above
T14 construct: also called FPDEEGA
T14 peptide: FPDEEGA

[12] = molecular target: T15, peptide 17 (FIGURE 3 d/e); test: as above
T15 construct: also called EEGA
T15 peptide: EEGA

peptide 7 (FIGURE 3 d/e) = molecular target: T16, peptide 7 (FIGURE 3 d/e); test: as above
T16 peptide: SYMPIWKFPDEEGA

peptide 9 (FIGURE 3 d/e) = molecular target: T17, peptide 9 (FIGURE 3 d/e); test: as above
T17 peptide: MPIWKFPDEEGA

peptide 8 (FIGURE 3 d/e) = molecular target: T18, peptide 8 (FIGURE 3 d/e); test: as above
T18 peptide: YMPIWKFPDEEGA

peptide 4 (FIGURE 3 d/e) = molecular target: T19, peptide 4 (FIGURE 3 d/e); test: as above
T19 peptide: PDLSYMPIWKFPDEEGA

[13] = molecular target: T20, Peptide 11 of Table 4 (N-terminal truncation, proline-612 lost); test: as above
T20 peptide: IWKFPDEEGA

peptide 5 (FIGURE 3 d/e) = molecular target: T21, peptide 5 (FIGURE 3 d/e); test: as above
T21 peptide: DLSYMPIWKFPDEEGA

[14] = molecular target: T22, Peptide 10 of Table 4 (N-terminal truncation, methionine-611 lost); test: as above
T22 peptide: PIWKFPDEEGA

[15] = molecular target: T23, peptide 15 (FIGURE 3 d/e); test: as above
T23 construct: also called PDEEGA
T23 peptide: PDEEGA

[16] = molecular target: T24, Peptide 1 of Table 4 (HER2 glycine-603 to alanine-622); test: as above
T24 construct: Parent peptide of the N-terminal truncation and double-alanine substitution series
T24 peptide: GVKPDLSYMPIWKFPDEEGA

[17] = molecular target: T25, Peptide 12 of Table 4 (N-terminal truncation, isoleucine-613 lost); test: as above
T25 peptide: WKFPDEEGA

Measured: binding result

B1: Oslo-2 antibody (monoclonal antibody against p95HER2) (antibody, V domains shown)
VH: EVQILETGGGLVKPGGSLRLSCATSGFNFNDYFMNWVRQAPGKGLEWIAQIRNKNYNYATYFAESLEGRFTISRDDSKSSVYLQVNSLRAEDTALYYCTELRYDYWGQGVMVTVSS
VL: DIVMTQSPFSLAVSEGEMVTINCKSSQSLLSSGNQKNNLAWYQQKPGQSPKLLIYYASTRQSGVPDRFIGSGSGTDFTLTISDVQAEDLADYYCLQHYSSPYTFGAGTKLELK
notes: Monoclonal antibody from a rat hybridoma (mClone 1), detected with goat anti-rat-PE; also called the antibody of interest; the antibody
no binding: [1] | [2] | [3] | [4] | [6] | [7] | [8] | [9] | [10] | [11] | [12] | [15]
binds: all other assays above
